The values below come from patent US20260085105A1 (Amgen, published 2026).

Experiment [1] concerns the target T1, MAGE-A4 (100% identical in MAGEA8) peptide on HLA-A*02:01 (human).
T1 peptide: KVLEHVVRV
Nature of the experiment: cells that express the antigen: NCI-H1755; TCR-Ts of three donors; full-length, on cells.

For experiment [2], the target named is T2, AXIN1 peptide on HLA-A*02:01 (human).
T2 peptide: ILDEHVQRV
The experiment is described as follows: killing.

Experiment [3] concerns the target T3, TSC1 peptide on HLA-A*02:01 (human).
T3 peptide: SLLGHVIRL
The experiment is described as follows: killing.

Experiment [4] deals with T4, TP2 peptide on HLA-A*02:01 (human).
T4 peptide: KILEDVVGV
Nature of the experiment: killing.

Experiment [5] has as its target T5, ATAD2 peptide on HLA-A*02:01 (human).
T5 peptide: KILEALQRV
Nature of the experiment: killing.

Experiment [6] deals with T6, GRP78 peptide on HLA-A*02:01 (human).
T6 peptide: KVTHAVVTV
The experiment is described as follows: killing.

Experiment [7] has as its target T7, SYNE3 peptide on HLA-A*02:01 (human).
T7 peptide: KLLDLQVRV
The experiment is described as follows: killing.

Experiment [8] deals with T8, TRMT1L peptide on HLA-A*02:01 (human).
T8 peptide: VALEHFVLV
Nature of the experiment: killing.

Experiment [9] has as its target T9, MAGE-A4 (100% identical in MAGEA8) peptide on HLA-A*02:07 (human).
T9 peptide: KVLEHVVRV
Nature of the experiment: killing.

For experiment [10], the target named is T10, HNRNPR peptide on HLA-A*02:01 (human).
T10 peptide: KVWGNVVTV
The experiment is described as follows: killing.

The target of experiment [11] is T11, RG1L peptide on HLA-A*02:01 (human).
T11 peptide: FLLETVVRV
Nature of the experiment: killing.

Experiment [12] concerns the target T12, MAGE-A4 (100% identical in MAGEA8) peptide on HLA-A*02:05 (human).
T12 peptide: KVLEHVVRV
The experiment is described as follows: killing.

Experiment [13] has as its target T13, PSME2 peptide on HLA-A*02:01 (human).
T13 peptide: KVLERVNAV
Nature of the experiment: killing.

The target of experiment [14] is T14, PTRF peptide on HLA-A*02:01 (human).
T14 peptide: KLLEKVRKV
The experiment is described as follows: killing.

In experiment [15] the target is T15, KIAA1033 peptide on HLA-A*02:01 (human).
T15 peptide: KVLNKVITV
The experiment is described as follows: killing.

Experiment [16] has as its target T16, ANO5 peptide on HLA-A*02:01 (human).
T16 peptide: IVMEHVVFL
Nature of the experiment: killing.

The target in experiment [17] is T17, HERC4 peptide on HLA-A*02:01 (human).
T17 peptide: KVLEILHRV
Nature of the experiment: killing.

The target in experiment [18] is T18, MADD peptide on HLA-A*02:01 (human).
T18 peptide: ILLEHKVVL
The experiment is described as follows: killing.

Experiment [19] has as its target T19, MIA3 peptide on HLA-A*02:01 (human).
T19 peptide: KVLDKVFRA
Nature of the experiment: killing.

Experiment [20] addresses T20, NSD1 peptide on HLA-A*02:01 (human).
T20 peptide: KVQEQVHKV
Nature of the experiment: killing.

The target in experiment [21] is T21, GPC5 peptide on HLA-A*02:01 (human).
T21 peptide: KLLEQVNRI
The experiment is described as follows: killing.

For experiment [22], the target named is T22, HTR5A peptide on HLA-A*02:01 (human).
T22 peptide: KVLETLVTV
Nature of the experiment: killing.

Experiment [23] has as its target T23, CNOT1 peptide on HLA-A*02:01 (human).
T23 peptide: KVLGIVVGV
Nature of the experiment: killing.

B1: TCR3 of Tables 1A and 1B (TCR2 of the examples) (TCR, V domains shown)
Valpha: GESVGLHLPTLSVQEGDNSIINCAYSNSASDYFIWYKQESGKGPQFIIDIRSNMDKRQGQRVTVLLNKTVKHLSLQIAATQPGDSAVYFCAEASPRQDTGRRALTFGSGTRLQVQP
Vbeta: DAGVTQSPTHLIKTRGQQVTLRCSPKSGHDTVSWYQQALGQGPQFIFQYYEEEERQRGNFPDRFSGHQFPNYSSELNVNALLLGDSALYLCASSLWTGSGELFFGEGSRLTVL
Turning to B1, in experiment [1], the “E:T EC50” value was 0.01 effector:target ratio. Moreover, the binding result in experiment [2], in experiment [3], in experiment [4], in experiment [5], in experiment [6] and in experiment [7] was “no recognition” in each case. The binding result in experiment [8] is “no recognition”; in experiment [9], “recognises”; in experiment [10], “no recognition”; in [11] it was “no recognition”; in [12], “recognises”; in experiment [13] it was “no recognition”. The binding result in [14], in experiment [15], in experiment [16], in experiment [17], in experiment [18] and in experiment [19] was “no recognition” throughout. The binding result in [20], in experiment [21], in experiment [22] and in experiment [23] was “no recognition” each time.
